Key:
[1] = format: physicochemical; settings: all lipid mixtures; van't Hoff analysis of CD partitioning data
[2] = Hydrophobic-effect free energy ΔG hϕ calculated from measured heat capacity; format: physicochemical; settings: for hydrophobic free energy ΔG hϕ: calculated from measured heat capacity
[3] = CD titration of melittin with SUVs: free energy of partitioning; format: physicochemical; settings: 5 mM lipid, estimated from measured partitioning free energy ΔG
[4] = Isothermal titration calorimetry: enthalpy of melittin partitioning into LUVs; format: physicochemical; settings: for −TΔS: from ΔG = ΔH − TΔS, ± joint confidence limits
[5] = cited from earlier work
[6] = CD spectroscopy: helical content of membrane-bound melittin; format: physicochemical; settings: for peptide helical fraction f α: 25°C, CD molar ellipticity at 222 nm
[7] = various methods, mole-fraction partition coefficients, ref Beschiaschvili and Baeuerle 1991, Kuchinka and Seelig 1989, Ladokhin et al. 2000, Ladokhin and White 1999, Schwarz and Beschiaschvili 1989, Vogel 1981; cited from earlier work
[8] = Isothermal titration calorimetry: enthalpy of melittin partitioning into SUVs; format: physicochemical; settings: POPC SUVs, 25°C; ITC, 10 μl of 100 μM melittin into 5 mM lipid

Substance: melittin
- heat capacity change [1]: approximately −0.5 kcal mol^−1 K^−1
- T h (temperature at which ΔH hϕ has a bulk-phase transfer value of 0) ([2]; POPC): 326 K
- T s (temperature at which ΔS hϕ has a bulk-phase transfer value of 0) ([2]; POPC): 336 K
- T h ([2]; POPC50:POPG50): 292 K
- T s ([2]; POPC50:POPG50): 305 K
- hydrophobic free energy ΔG hϕ ([2]; POPC50:POPG50, 25°C): −7.50 (±0.52) kcal mol^−1
- T h ([2]; POPC75:POPG25): 294 K
- T s ([2]; POPC75:POPG25): 306 K
- hydrophobic free energy ΔG hϕ ([2]; POPC75:POPG25, 25°C): −6.87 (±0.30) kcal mol^−1
- T h ([2]; POPC90:POPG10): 296 K
- T s ([2]; POPC90:POPG10): 316 K
- hydrophobic free energy ΔG hϕ ([2]; POPC90:POPG10, 25°C): −6.68 (±0.22) kcal mol^−1
- contribution of the hydrophobic effect to the total free energy ([2]; POPC, 25°C): approximately 79%
- hydrophobic free energy ΔG hϕ ([2]; POPC, 25°C): −4.88 (±2.83) kcal mol^−1
- fraction of melittin bound [3]: 95%
- change of heat capacity ([4]; LUVs at different lipid content, slope of enthalpy vs temperature (Fig. 4b)): about −0.5 kcal/molK
- −TΔS ([4]; POPC 50%:POPG 50% LUVs, 25°C): −2.8 (±1) kcal mol^−1
- −TΔS ([4]; POPC 50%:POPG 50% LUVs, 40°C): 3.08 (±1) kcal mol^−1
- −TΔS ([4]; POPC 50%:POPG 50% LUVs, 50°C): 8.73 (±1.1) kcal mol^−1
- −TΔS ([4]; POPC 50%:POPG 50% LUVs, 60°C): 16.99 (±1.5) kcal mol^−1
- −TΔS ([4]; POPC 75%:POPG 25% LUVs, 25°C): −4.42 (±0.6) kcal mol^−1
- −TΔS ([4]; POPC 75%:POPG 25% LUVs, 40°C): 3.24 (±0.8) kcal mol^−1
- −TΔS ([4]; POPC 75%:POPG 25% LUVs, 50°C): 8.32 (±0.4) kcal mol^−1
- −TΔS ([4]; POPC 75%:POPG 25% LUVs, 60°C): 15.06 (±1.1) kcal mol^−1
- −TΔS ([4]; POPC 90%:POPG 10% LUVs, 25°C): −5.9 (±1.5) kcal mol^−1
- −TΔS ([4]; POPC 90%:POPG 10% LUVs, 40°C): −2.25 (±0.9) kcal mol^−1
- −TΔS ([4]; POPC 90%:POPG 10% LUVs, 50°C): 3.3 (±1) kcal mol^−1
- −TΔS ([4]; POPC 90%:POPG 10% LUVs, 60°C): 5.73 (±1.1) kcal mol^−1
- −TΔS ([4]; POPC 100%:POPG 0% LUVs, 40°C): −12.3 (±1.6) kcal mol^−1
- −TΔS ([4]; POPC 100%:POPG 0% LUVs, 50°C): −6.2 (±1.4) kcal mol^−1
- −TΔS ([4]; POPC 100%:POPG 0% LUVs, 60°C): −3.2 (±1.3) kcal mol^−1
- heat capacity associated with partitioning ([4]; all lipid mixtures (POPC:POPG 0–50% POPG), independent of lipid composition): about −0.5 kcal mol^−1 K^−1
- electrical valence (formal valence) ([5]; formal peptide charge as stated, no reference given): 5–6
- effective charge ([5]; literature value, ref Beschiaschvili and Baeuerle 1991): ≈ 2
- fraction of peptide bound ([6]; POPC50:POPG50, 5°C, CD): ≈ 0.57
- peptide helical fraction f α ([6]; POPC50:POPG50 LUVs): 0.71
- peptide helical fraction f α ([6]; POPC75:POPG25 LUVs): 0.73
- peptide helical fraction f α ([6]; POPC90:POPG10 LUVs): 0.71
- peptide helical fraction f α ([6]; POPC LUVs, Luo and Baldwin formula): 0.71
- α-helical content ([6]; melittin bound to a lipid membrane at 25°C, CD): ~ 70%
- helical fraction of peptide (or the fraction of peptide bound) ([6]; pure POPC, 5°C, CD): ≈ 0.57
- fraction of peptide bound ([6]; pure POPC, 60°C, CD): ≈ 0.63
- free energy of partitioning of unfolded melittin into the bilayer interface of POPC vesicles [7]: −6 to −7 kcal mol^−1
- enthalpy change, before corrections [8]: ≈ −10 kcal mol^−1

Source: publication PMC3030945 (The Journal of Membrane Biology, 2010)
